We go through one substance from doi:10.1101/2025.04.04.647159.

In the assay the target is Candidatus Liberibacter asiaticus pyrophosphate-fructose-6-phosphate 1-phosphotransferase (Candidatus Liberibacter asiaticus). Nature of the assay: SEC. For orientation: Size exclusion chromatography separates by hydrodynamic size, large species first.

In turn, “Candidatus Liberibacter asiaticus pyrophosphate-fructose-6-phosphate 1-phosphotransferase (enzyme)” had a stoichiometry N of 4.

Broadly, the stoichiometry N is a count of units in the complex or per binding partner.
